Binding result and Kd data for 3 molecules are collected here from patent publication US20070004909A1 (MacroGenics, published 2007).

Test [1] deals with T1, soluble CD16A (sCD16A) (UniProt P08637 17-208, limits assumed).
T1 construct: extracellular domain; Amine-coupled to the chip in SPR; biotin- or HRP-conjugated as the probe in the sandwich ELISAs; also called FcγRIIIA; sCD16A-Biotin
As to the kind of experiment: sandwich ELISA: sCD32B coated on the plate (figure legend), purified diabody diluted 1:25 to 1:100, HRP-conjugated sCD16A as the probe; OD450.

In test [2] the target is T2, soluble CD32B (sCD32B) (UniProt P31994 43-217, limits assumed).
T2 construct: extracellular domain; As immobilised on the BIAcore chip; also called FcγRIIB
T2 sequence (looked up): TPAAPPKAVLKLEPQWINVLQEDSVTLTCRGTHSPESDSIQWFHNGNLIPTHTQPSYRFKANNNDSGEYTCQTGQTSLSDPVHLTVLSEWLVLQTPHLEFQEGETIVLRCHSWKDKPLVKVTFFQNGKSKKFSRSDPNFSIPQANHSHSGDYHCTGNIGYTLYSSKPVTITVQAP
As to the kind of experiment: SPR (BIAcore), sCD32B immobilised, diabody injected for 60 s. The method, then:
(§1) The binding of h2B6-h3G8 CBD, h2B6 CMD and h3G8 CMD to sCD16A, sCD32B, and sCD32A (negative control) was assayed by SPR analysis. h3G8 scFv was also tested as a control. (A) Binding to sCD16; (B) Binding to sCD32B and (C) Binding to sCD32A. Diabodies were injected at a concentration of 100 NM, and scFv at a concentration of 200 nM, over receptor surfaces at a flow rate of […] for 60 sec.
On the technique in general: Surface plasmon resonance follows binding to a sensor surface in real time, without labels.

In the next test the target is T3, soluble CD32A (sCD32A) (UniProt P12318 34-217, limits assumed).
T3 construct: extracellular domain; Negative control surface in SPR; also called control receptor
T3 sequence (looked up): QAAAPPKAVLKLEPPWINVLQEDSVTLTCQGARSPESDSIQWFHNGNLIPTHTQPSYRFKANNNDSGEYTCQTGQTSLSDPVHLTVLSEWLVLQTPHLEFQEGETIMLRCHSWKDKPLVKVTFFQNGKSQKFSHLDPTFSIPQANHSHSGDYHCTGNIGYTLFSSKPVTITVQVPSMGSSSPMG
As to the kind of experiment: SPR (BIAcore), sCD32A (negative control receptor) immobilised, diabody injected for 60 s. The method, then:
as §1

A further test concerns the target T4, sCD32B-Ig (UniProt P31994 43-217).
T4 construct: extracellular domain; also called CD32B (ELISA coat); sCD32B (target protein of the sandwich ELISAs); not shown: Ig part of sCD32B-Ig is not described
T4 sequence (looked up): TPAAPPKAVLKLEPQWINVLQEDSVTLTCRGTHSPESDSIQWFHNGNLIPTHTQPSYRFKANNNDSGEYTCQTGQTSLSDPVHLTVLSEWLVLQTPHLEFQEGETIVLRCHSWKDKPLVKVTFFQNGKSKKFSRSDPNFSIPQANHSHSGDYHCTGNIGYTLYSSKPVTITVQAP
As to the kind of experiment: sandwich ELISA: sCD32B-Ig coated on the plate, diabody titrated, detected with labelled sCD16A; OD450. The method, then: The binding of h2B6-h3G8 CBD to sCD32B and sCD16A was assayed in a sandwich ELISA. sCD32B was used as the target protein. The secondary probe was HRP conjugated sCD16A. h3G8 CMD, which binds CD16A, was used as control.
ELISA: The binding of eluted and purified diabodies was characterized by ELISA assay, as described in 5.4.2. 50 ul/well of a 2 ug/ml solution of sCD32B-Ig was coated on 96-well Maxisorp plate in Carbonate buffer at 4° C. over night. The plate was washed three times with PBS-T (PBS, 0.1% Tween 20) and blocked by 0.5% BSA in PBS-T for 30 minutes at room temperature. Subsequently, h2B6-h3G8 CBD, h2B6 CMD, or h3G8 CMD were diluted into the blocking buffer in a serial of two-fold dilutions to generate a range of diabody concentrations, from 0.5 μg/ml to 0.001 μg/ml. The plate was then incubated at room temperature for 1 hour. After washing with PBS-T three times, 50 ul/well of 0.2 ug/ml sCD16A-Biotin was added to each well. The plate was again incubated at room temperature for 1 hour. After washing with PBS-T three times, 50 ul/well of a 1:5000 dilution of HRP conjugated streptavidin (Amersham Pharmacia Biotech) was used for detection. The HRP-streptavidin was allowed to incubate for 45 minutes at room temperature. […] The OD450 nm was read by using a 96-well plate reader and SOFTmax software, and results plotted using GraphPadPrism 3.03 software. […]
For orientation: An ELISA detects its analyte on a solid surface through an enzyme-linked reagent.

For test [3], the target named is T1, soluble CD16A (sCD16A). As to the kind of experiment: SPR (BIAcore 1000); receptor amine-coupled (~1000 RU), analyte 6.25-200 nM; units not printed (koff/kon implies nM). The method, then: (§2) The binding of h2B6-h3G8 CBD, h2B6 CMD and h3G8 CMD to sCD16A, and sCD32B was assayed by SPR analysis. h3G8 scFv was also tested as a control. (A) Binding of to h3G8 CMD sCD16A; (B) Binding of h2B6-h3G8 CBD to sCD16A; (C) Binding of h3G8 scFv to sCD16A; (D) Binding of h2B6 CMD to sCD32B; and (E) Binding of h2B6-h3G8 CBD to sCD32B. Diabodies were injected at concentrations of 6.25-200 nM over receptor surfaces at a flow rate of […] for 180 sec.
(§3) SPR analysis was also used to estimate the kinetic and equilibrium constants of the CMDs and h2B6-h3G8 CBD to sCD16 and/or sCD32B. Results were compared to the same constants calculated for an h3G8 scFV. FIGS. 7A-E show the graphical results of the SPR analysis. The kinetic on and off rates, as well as the equilibrium constant, calculated from the results depicted in FIG. 7 are provided in Table 13.

Test [4] has as its target T1, soluble CD16A (sCD16A). As to the kind of experiment: SPR (BIAcore), sCD16 immobilised, diabody injected for 60 s. Here is the method: as §1
Test [5] addresses T2, soluble CD32B (sCD32B). As to the kind of experiment: SPR (BIAcore 1000); receptor amine-coupled (~1000 RU), analyte 6.25-200 nM; units not printed (koff/kon implies nM). Here is the method:
as §2, §3

T1 sequence (P08637 17-208 limits assumed): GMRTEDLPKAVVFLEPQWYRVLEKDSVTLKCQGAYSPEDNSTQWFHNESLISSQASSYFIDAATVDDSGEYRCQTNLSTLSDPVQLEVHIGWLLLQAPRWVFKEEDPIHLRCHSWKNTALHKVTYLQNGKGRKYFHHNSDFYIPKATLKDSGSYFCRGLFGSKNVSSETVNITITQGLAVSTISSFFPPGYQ

B1: covalent bispecific diabody of constructs 15 and 16 (pMGX0752+pMGX0753) (bispecific antibody)
chain 1: EIVLTQSPDFQSVTPKEKVTFTCRTSQSIGTNIHWYQQKPDQSPKLLIKEVSESISGVPSRFSGSGSGTDFTLTINSLEAEDAATYYCQQSNTWPFTFGGGTKVEIKGGGSGGGGQVTLRESGPALVKPTQTLTLTCTFSGFSLSTSGMGVGWIRQPPGKALEWLAHIWWDDDKRYNPALKSRLTISKDTSKNQVVLTMTNMDPVDTATYYCAQINPAWFAYWGQGTLVTVSSFNRGEC
chain 2: DIVMTQSPDSLAVSLGERATINCKASQSVDFDGDSFMNWYQQKPGQPPKLLIYTTSNLESGVPDRFSGSGSGTDFTLTISSLQAEDVAVYYCQQSNEDPYTFGQGTKLEIKGGGSGGGGQVQLVQSGAEVKKPGASVKVSCKASGYTFTNYWIHWVRQAPGQGLEWIGVIDPSDTYPNYNKKFKGRVTMTVVVSTSTAYMELRSLRSDDTAVYYCARNGDSDYYSGMDYWGQGTTVTVSSVEPKSC
notes: Construct 15 = Hu2B6VL-Hu3G8VH-FNRGEC; construct 16 = Hu3G8VL-Hu2B6VH-VEPKSC; also called construct 15/16 combination
Consider B1, for which the binding result with soluble CD16A (sCD16A) [1] is “binds”.

B2: h3G8 covalent monospecific diabody (CMD) (other)
chain 1: DIVMTQSPDSLAVSLGERATINCKASQSVDFDGDSFMNWYQQKPGQPPKLLIYTTSNLESGVPDRFSGSGSGTDFTLTISSLQAEDVAVYYCQQSNEDPYTFGQGTKLEIKGGGSGGGGQVTLRESGPALVKPTQTLTLTCTFSGFSLSTSGMGVGWIRQPPGKALEWLAHIWWDDDKRYNPALKSRLTISKDTSKNQVVLTMTNMDPVDTATYYCAQINPAWFAYWGQGTLVTVSSLGGC
chain 2: DIVMTQSPDSLAVSLGERATINCKASQSVDFDGDSFMNWYQQKPGQPPKLLIYTTSNLESGVPDRFSGSGSGTDFTLTISSLQAEDVAVYYCQQSNEDPYTFGQGTKLEIKGGGSGGGGQVTLRESGPALVKPTQTLTLTCTFSGFSLSTSGMGVGWIRQPPGKALEWLAHIWWDDDKRYNPALKSRLTISKDTSKNQVVLTMTNMDPVDTATYYCAQINPAWFAYWGQGTLVTVSSLGGC
modifications: Covalent homodimer: disulfide between the C-terminal LGGC cysteines of the two identical chains.
notes: also called h3G8 CMD; h3G8 diabody
Usually Kd stands for a measure of binding affinity in units of concentration. High values mean a looser complex, low ones a tighter complex. For the molecule B2, the binding result with soluble CD32B (sCD32B) [2] is given as “no binding (tested: 100 nM)”; in the test with soluble CD32A (sCD32A) it was “no binding (tested: 100 nM)”; with sCD32B-Ig, “no binding (tested: 0.5 ug/ml)”. Also, the Kd with soluble CD16A (sCD16A) [3] was found to be 18 nM.

B3: h2B6 covalent monospecific diabody (CMD) (other)
chain 1: EIVLTQSPDFQSVTPKEKVTFTCRTSQSIGTNIHWYQQKPDQSPKLLIKEVSESISGVPSRFSGSGSGTDFTLTINSLEAEDAATYYCQQSNTWPFTFGGGTKVEIKGGGSGGGGQVQLVQSGAEVKKPGASVKVSCKASGYTFTNYWIHWVRQAPGQGLEWIGVIDPSDTYPNYNKKFKGRVTMTVVVSTSTAYMELRSLRSDDTAVYYCARNGDSDYYSGMDYWGQGTTVTVSSLGGC
chain 2: EIVLTQSPDFQSVTPKEKVTFTCRTSQSIGTNIHWYQQKPDQSPKLLIKEVSESISGVPSRFSGSGSGTDFTLTINSLEAEDAATYYCQQSNTWPFTFGGGTKVEIKGGGSGGGGQVQLVQSGAEVKKPGASVKVSCKASGYTFTNYWIHWVRQAPGQGLEWIGVIDPSDTYPNYNKKFKGRVTMTVVVSTSTAYMELRSLRSDDTAVYYCARNGDSDYYSGMDYWGQGTTVTVSSLGGC
modifications: Covalent homodimer: disulfide between the C-terminal LGGC cysteines of the two identical chains.
notes: also called h2B6 CMD; h2B6 diabody
For B3, the binding result with soluble CD16A (sCD16A) [4] and with soluble CD32A (sCD32A) was “no binding (tested: 100 nM)” in each case. For the same molecule, the affinity with soluble CD32B (sCD32B) [5], expressed as Kd, was 21 nM.
